# Assay results taken from patent publication US20140193357A1.
# Where “and” joins values, the source holds several entries; their conditions need not be identical. Identical values can stand only once.
# Target: T1, G-CSF receptor on the surface of murine myeloid leukemia cell line G-NFS-60 (murine (cell line G-NFS-60)) (UniProt P40223)
# T1 sequence (looked up): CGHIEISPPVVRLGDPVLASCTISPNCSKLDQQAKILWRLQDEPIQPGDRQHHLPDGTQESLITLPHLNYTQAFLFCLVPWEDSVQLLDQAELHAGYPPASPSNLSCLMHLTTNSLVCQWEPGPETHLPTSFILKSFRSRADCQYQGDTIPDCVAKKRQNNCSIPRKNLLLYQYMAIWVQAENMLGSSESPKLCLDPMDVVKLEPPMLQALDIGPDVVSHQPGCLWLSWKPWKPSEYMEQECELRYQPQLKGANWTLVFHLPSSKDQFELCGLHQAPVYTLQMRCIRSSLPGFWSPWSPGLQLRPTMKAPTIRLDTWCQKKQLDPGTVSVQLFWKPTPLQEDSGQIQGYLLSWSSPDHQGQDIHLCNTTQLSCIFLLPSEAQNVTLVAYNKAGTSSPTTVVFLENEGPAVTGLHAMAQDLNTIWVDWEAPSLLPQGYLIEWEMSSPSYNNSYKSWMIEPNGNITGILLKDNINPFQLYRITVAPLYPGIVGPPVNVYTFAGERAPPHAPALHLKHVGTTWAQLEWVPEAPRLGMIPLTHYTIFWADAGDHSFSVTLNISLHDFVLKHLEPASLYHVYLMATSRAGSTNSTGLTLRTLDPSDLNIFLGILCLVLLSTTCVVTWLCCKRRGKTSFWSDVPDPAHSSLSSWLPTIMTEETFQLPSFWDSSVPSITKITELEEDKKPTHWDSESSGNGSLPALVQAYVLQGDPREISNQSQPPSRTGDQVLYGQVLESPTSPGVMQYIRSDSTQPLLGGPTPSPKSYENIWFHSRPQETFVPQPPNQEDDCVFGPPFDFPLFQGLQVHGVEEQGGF
# Assay: cell-based or functional assay
substance,measurement,value
Monomer G-CSF (from UniProt P09919 31-204) (ligand),"Biologic activity (proliferation of G-NFS-60 cells, MTS dye)",1e+08 IU/mg and 6e+07 IU/ml
